Laboratory results: paper PMC3167755

Target: T1, Fur-His6 (CjFur-His6) (Campylobacter jejuni 81-176) (UniProt P0C631)
T1 sequence: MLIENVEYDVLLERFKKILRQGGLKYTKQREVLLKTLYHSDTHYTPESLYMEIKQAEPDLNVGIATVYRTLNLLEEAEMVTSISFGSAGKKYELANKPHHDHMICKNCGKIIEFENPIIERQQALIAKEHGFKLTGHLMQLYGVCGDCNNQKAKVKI
Assay: EMSA
Details: 10 mM Tris-HCl pH 7.5, 1 mM MgCl2, 0.5 mM DTT, 50 mM KCl, 100 uM MnCl2 (omitted where stated), 1 ug poly(dI-dC), 50 ug BSA, 5% glycerol, 20 ul, ~28 fmol DNA …

Sequence: GCTAATGCAAAACTTGAATAAAATACAAGAGCTAAAACAAATTTGCAAAAAAATTTACGCATATTATATCCTTGGTTAAATAAAATTTTCAAAGATAATTTTATTTAAAAAAATAAATAAGCCCAAATTTATTTTTGGGCTTATTGTTATTTTTTAGGATTGAATGCTTGATCAACACTAAAAGGCATTGCTTGATAACCCGTGCCTGAACCGCTAAATTGAATTTGAACCGAAGGCTCCTTAGCACCCCAGTTAAATTCATCAATTTCAGGTTTTGGCTCTCCAAGACTTACACCT (double strand) [dsbA1 promoter region]
- binding: no binding
